Experimental findings from the RNAGym collection of RNA variant scans (doi:10.7554/elife.90254) are described below.

B1: LINE1-full (parent)
chain: UACGUAGGUGGUUUUCCCCUGAUAGUGCUAAGGGGGCCUGGAAGUUUGGACUGGGCAGAGCUCAACACAGCGUGGCAAAGUGGCUGUGGCUAGACUGCCUCUCUGGAUUCCUCGUCACUCAGCAGGGCAUCUCUGAGAGAAAUGCC

In this series the parent is B1. Briefly: self-cleavage, relative activity (ratio to wild type); higher = more cleavage; in vitro, sequencing; the parent is a self-cleaving ribozyme.
In the case of UACGUAGGUGGUUUUCCCCUGAUAGUGCUAAGGGGGCCUGGGAGUUUGGACUGGACAGAGCUCAACACAGCGUGGCAAAGUGGCUGUGGCUAGACUGCCUCUCUGGAUUCCUCGUCACUCAGCAGGGCAUCUCUGAGAGAAAUGCC [A42G G55A], the self-cleavage amounted to 0.29.

UACGUAGGUGGUUUUCCCCUGAUAGUGCUAAGGGGGCCUGGGAGUUUGGACUGGGCAGAGCUCAACACAGCGUGGCAAAGUGGCUGUGGCUAGACUGCCUCUCUGGAUUCCUCGUCUCUCAGCAGGGCAUCUCUGAGAGAAAUGCC [A42G A117U]: the self-cleavage was 1.33.

As for UACGUAGGUGGUUUUCCCCUGAUAGUGCUAAGGGGGCCUGGGAGUUUGGACUGGGCAGAGCUCAACACAGCGUGGCAAAGUGGCUGUGGCUAGAUUGCCUCUCUGGAUUCCUCGUCACUCAGCAGGGCAUCUCUGAGAGAAAUGCC [A42G C95U], the self-cleavage turned out to be 0.2.

As for UACGUAGGUGGUUUUCCCCUGAUAGUGCUAAGGGGGCCUGGGAGUUUGGACUGGGCAGAGCUCAACACAGCGUGGCAAAGUGGCUGUGGCUAGACUGCCUCUCUGGAUUCUUCGUCACUCAGCAGGGCAUCUCUGAGAGAAAUGCC [A42G C111U], the self-cleavage was 1.37.

Consider UACGUAGGUGGUUUUCCCCUGAUAGUGCUAAGGGGGCCUGGGAGUUUAGACUGGGCAGAGCUCAACACAGCGUGGCAAAGUGGCUGUGGCUAGACUGCCUCUCUGGAUUCCUCGUCACUCAGCAGGGCAUCUCUGAGAGAAAUGCC [A42G G48A], for which the self-cleavage was 0.85.

As for UACGUAGGUGGUUUUCCCCUGAUAGUGCUAAGGGGGCCUGGGAGUUUGGACUAGGCAGAGCUCAACACAGCGUGGCAAAGUGGCUGUGGCUAGACUGCCUCUCUGGAUUCCUCGUCACUCAGCAGGGCAUCUCUGAGAGAAAUGCC [A42G G53A], the self-cleavage is 1.36.

Regarding UACGUAGGUGGUUUUCCCCUGAUAGUGCUAAGGGGGCCUGGGAGUUUGGACUGGGCAGAGCUCAACACAGCGUGGCAGAGUGGCUGUGGCUAGACUGCCUCUCUGGAUUCCUCGUCACUCAGCAGGGCAUCUCUGAGAGAAAUGCC [A42G A78G], the self-cleavage came to 1.49.

On to UACGUAGGUGGUUUUCCCCUGAUAGUGCUAAGGGGGCCUGGGAGUUUGGACUGGGCAGAGCUCAACACAGCGUGGCAAAGUGGCUGUGGCUAGACUGCCUCUCUGGAUUCCUCGUCACUCAGCAGGGCAUAUCUGAGAGAAAUGCC [A42G C131A], for which the self-cleavage came out at 1.23.

In the case of UACGUAGGUGGUUUUCCCCUGAUAGUGCUAAGGGGGCCUGGGAGUUUGGACUGGGCAGAGCUCAACACAGCGUGGCAAAGUGGCUGUGGCUAGACUGCCUCUCUGGAUUCCUCGUCACUCAGCAGGGCCUCUCUGAGAGAAAUGCC [A42G A129C], the self-cleavage is 2.1.

For UACGUAGGUGGUUUUCCCCUGAUAGUGCUAAGGGGGCCUGGGAGUUUGGACUGGGCAGAGCUCAACACAGCGUGGCAAAGUGGCUGUGGCUAGACUGCCUCUCUGGAUUCCUCGUCACUCAGCAGGGCUUCUCUGAGAGAAAUGCC [A42G A129U], the self-cleavage came to 1.75.

Take UACGUAGGUGGUUUUCCCCUGAUAGUGCUAAGGGGGCCUGGGAGUUUGGACUGGGCAGAGCUCAACACAGCGUGGCAAAGUGGCUGUGGCUAGACUGCCUCUCUGGAUUCCUCGUCACUCAGCAGGGCAUCUAUGAGAGAAAUGCC [A42G C133A]: the self-cleavage worked out at 1.59.

UACGUAGGUGGUUUUCCCCUGAUAGUGCUAAGGGGGCCUGGGAGUUUGGACUGGGCAGAGCUCAACGCAGCGUGGCAAAGUGGCUGUGGCUAGACUGCCUCUCUGGAUUCCUCGUCACUCAGCAGGGCAUCUCUGAGAGAAAUGCC [A42G A67G]: the self-cleavage is 0.88.

Take UACGUAGGUGGUUUUCCCCUGAUAGUGCUAAGGGGGCCUGGGAGUUUGGACUGGGCAGAGCUCAACACAGCGUGGCAAAGUGGCUGUGGCUAGACUGCCUCUCUGGAUUCCUCGUCACUCCGCAGGGCAUCUCUGAGAGAAAUGCC [A42G A121C]: the self-cleavage was 0.84.

Consider UACGUAGGUGGUUUUCCCCUGAUAGUGCUAAGGGGGCCUGGGAGUUUGGACUGGGCAGAGCUCAACACAGCGUGGCAAAGUGGCUGUGGCUUGACUGCCUCUCUGGAUUCCUCGUCACUCAGCAGGGCAUCUCUGAGAGAAAUGCC [A42G A92U], for which the self-cleavage is 0.72.

As for UACGUAGGUGGUUUUCCCCUGAUAGUGCUAAGGGGGCCUGGGAGUUUGGACUGGGCAGAGCUCAACACAGCGUGGCAAAGUGGCUGUGGCUGGACUGCCUCUCUGGAUUCCUCGUCACUCAGCAGGGCAUCUCUGAGAGAAAUGCC [A42G A92G], the self-cleavage turned out to be 0.15.

In the case of UACGUAGGUGGUUUUCCCCUGAUAGUGCUAAGGGGGCCUGGGAGUUUGGACUGGGCAGAGCUCAACACAGCGUGGCAAAGUGGCUGUGGCUAGACUGCCUCUCUGGAUUCCUCGUCACUCAGCAGGGCAUCUCUGAGAGAAAUGUC [A42G C145U], the self-cleavage came out at 1.26.

In the case of UACGUAGGUGGUUUUCCCCUGAUAGUGCUAAGGGGGCCUGGGAGUUUGGACUGGGCAGAGCUCAACACAGCGUGGCAAAGUGGCUGUGGCUAGACUGCCUCUAUGGAUUCCUCGUCACUCAGCAGGGCAUCUCUGAGAGAAAUGCC [A42G C103A], the self-cleavage was 1.49.

As to UACGUAGGUGGUUUUCCCCUGAUAGUGCUAAGGGGGCCUGGGAGUUUGGACUGGGCAGAGCUCAACACAGCGUGGCGAAGUGGCUGUGGCUAGACUGCCUCUCUGGAUUCCUCGUCACUCAGCAGGGCAUCUCUGAGAGAAAUGCC [A42G A77G], the self-cleavage was determined as 2.66.

For the variant UACGUAGGUGGUUUUCCCCUGAUAGUGCUAAGGGGGCCUGGGAGUUUGGACUGGGCAGAGCUCAACACAGCGUGGCUAAGUGGCUGUGGCUAGACUGCCUCUCUGGAUUCCUCGUCACUCAGCAGGGCAUCUCUGAGAGAAAUGCC [A42G A77U], the self-cleavage was determined as 1.02.

Take UACGUAGGUGGUUUUCCCCUGAUAGUGCUAAGGGGGCCUGGGAGUUUGGACUGGGCAGAGCUCAACACAGCGUGGCAAAGUGGCUGUGGCUAGACUGUCUCUCUGGAUUCCUCGUCACUCAGCAGGGCAUCUCUGAGAGAAAUGCC [A42G C98U]: the self-cleavage was determined as 0.53.

As for UACGUAGGUGGUUUUCCCCUGAUAGUGCUAAGGGGGCCUGGGAGUUUGGACUGGGCAGAGCUCAACACAGCGUGGCAAAGUGGCUGUGGCUAGACUGCAUCUCUGGAUUCCUCGUCACUCAGCAGGGCAUCUCUGAGAGAAAUGCC [A42G C99A], the self-cleavage was determined as 0.94.

In the case of UACGUAGGUGGUUUUCCCCUGAUAGUGCUAAGGGGGCCUGGGAGUUUGGACUGGGCAGAGCUCAACACAGCGUGGCAAAGUGGAUGUGGCUAGACUGCCUCUCUGGAUUCCUCGUCACUCAGCAGGGCAUCUCUGAGAGAAAUGCC [A42G C84A], the self-cleavage turned out to be 0.15.

As to UACGUAGGUGGUUUUCCCCUGAUAGUGCUAAGGGGGCCUGGGAGUUUGGACUGGGCAGAGCUCAACACAGCGUGGCAAAGUGGCUGUGGCUAGACUGCCUCUCUGGAUUCCUCGUCACUUAGCAGGGCAUCUCUGAGAGAAAUGCC [A42G C120U], the self-cleavage amounted to 0.67.

In the case of UACGUAGGUGGUUUUCCCCUGAUAGUGCUAAGGGGGCCUGGGAGUUUGGACUGGGCAGAGCUCAACACAGCGUGGCAAAGUGGCUGUGGCUAGACUGCCUCUCUGGAUUCCUCGUCACUAAGCAGGGCAUCUCUGAGAGAAAUGCC [A42G C120A], the self-cleavage is 1.54.

Consider UACGUAGGUGGUUUUCCCCUGAUAGUGCUAAGGGGGCCUGGGAGUUUGGACUGGGCAGAGCUCAACAUAGCGUGGCAAAGUGGCUGUGGCUAGACUGCCUCUCUGGAUUCCUCGUCACUCAGCAGGGCAUCUCUGAGAGAAAUGCC [A42G C68U], for which the self-cleavage came out at 0.18.

With UACGUAGGUGGUUUUCCCCUGAUAGUGCUAAGGGGGCCUGGGAGUUUGGACUGGGUAGAGCUCAACACAGCGUGGCAAAGUGGCUGUGGCUAGACUGCCUCUCUGGAUUCCUCGUCACUCAGCAGGGCAUCUCUGAGAGAAAUGCC [A42G C56U], the self-cleavage is 0.26.

Regarding UACGUAGGUGGUUUUCCCCUGAUAGUGCUAAGGGGGCCUGGGAGUUUGGACUGGGCAGAGCUCAACACAGCGUGGCAAAGUGGCUGUGGCUAGACUGCCUUUCUGGAUUCCUCGUCACUCAGCAGGGCAUCUCUGAGAGAAAUGCC [A42G C101U], the self-cleavage was 1.75.

Take UACGUAGGUGGUUUUCCCCUGAUAGUGCUAAGGGGGCCUGGGAGUUUGGACUGGGCAGAGCUCAACACAGCGUGGCAAAGUGGCUGUGGCUAGACUGCCUCUCUGGAUUCCUCGUCACUCAGCAGGGCAUCUCUGAGAGAAAUGCG [A42G C146G]: the self-cleavage turned out to be 0.45.

For UACGUAGGUGGUUUUCCCCUGAUAGUGCUAAGGGGGCCUGGGAGUUUGGACUGGGCAGAGCUCAACACAGCGUGGCAAAGUGGCUGUGGCUAGACUGCCUCUCUGGAUUCCUCGUCACUCAGCAGGGCAUCUCUGAGAGAAAUGCU [A42G C146U], the self-cleavage turned out to be 1.18.

Consider UACGUAGGUGGUUUUCCCCUGAUAGUGCUAAGGGGGCCUGGGAGUUUGGACUGGGCAGAGCUCAACACAGCGUGGCAAAGUGGCUGUGGCUAGACUGCCUCUCUGGAUUCCUCGUCACUCAGCAGGGCAUCUCUGAGUGAAAUGCC [A42G A138U], for which the self-cleavage turned out to be 1.6.

As for UACGUAGGUGGUUUUCCCCUGAUAGUGCUAAGGGGGCCUGGGAGUUUGGACUGGGCAGAGCUCAACACAGCGUGGCAAAGUGGCUGUGGCUAGACUGCCUCUCUGGAUUCCUCGUCACUCAGCAGGGCAUCUCUGAGGGAAAUGCC [A42G A138G], the self-cleavage was found to be 1.34.

For UACGUAGGUGGUUUUCCCCUGAUAGUGCUAAGGGGGCCUGGGAGUUUGGACUGGGCAGAGCUCAACACAGCGUGGCAAUGUGGCUGUGGCUAGACUGCCUCUCUGGAUUCCUCGUCACUCAGCAGGGCAUCUCUGAGAGAAAUGCC [A42G A79U], the self-cleavage is 1.57.

UACGUAGGUGGUUUUCCCCUGAUAGUGCUAAGGGGGCCUGGGAGUUUGGACUGGGCAGAGCUCAACACAGCGUGGCAAGGUGGCUGUGGCUAGACUGCCUCUCUGGAUUCCUCGUCACUCAGCAGGGCAUCUCUGAGAGAAAUGCC [A42G A79G]: the self-cleavage worked out at 1.37.

UACGUAGGUGGUUUUCCCCUGAUAGUGCUAAGGGGGCCUGGGAGUUUGGAUUGGGCAGAGCUCAACACAGCGUGGCAAAGUGGCUGUGGCUAGACUGCCUCUCUGGAUUCCUCGUCACUCAGCAGGGCAUCUCUGAGAGAAAUGCC [A42G C51U]: the self-cleavage worked out at 1.28.

As to UACGUAGGUGGUUUUCCCCUGAUAGUGCUAAGGGGGCCUGGGAGUUUGGACUGGGCAGAGCUCAACACGGCGUGGCAAAGUGGCUGUGGCUAGACUGCCUCUCUGGAUUCCUCGUCACUCAGCAGGGCAUCUCUGAGAGAAAUGCC [A42G A69G], the self-cleavage is 0.54.

Consider UACGUAGGUGGUUUUCCCCUGAUAGUGCUAAGGGGGCCUGGGAGUUUGGACUGGGCAGAGCUCAACACAGCGUGGCAAAGUGGCUGUGGCUAGACUGCCUCUCUGGAUUCCUCGUCACUCAGCAGGGCAUCUCUGAGAGGAAUGCC [A42G A140G], for which the self-cleavage worked out at 1.46.

Regarding UACGUAGGUGGUUUUCCCCUGAUAGUGCUAAGGGGGCCUGGGAGUUUGGACUGGGCAGAGCUCAACACAGCGUGGCAAAGUGGCUGUGGCUAGACUGCCUCUCUGGAUUCCUCGUCACUCAGCAGGGCAUCUCUGAGAGUAAUGCC [A42G A140U], the self-cleavage was 1.2.

In the case of UACGUAGGUGGUUUUCCCCUGAUAGUGCUAAGGGGGCCUGGGAGUUUGGACUGGGCAGAGCUCAACACAGCGUGGCAAAGUGGCUGUGGCUAGACUGCCUCUCUGGAUUCCUCGUCACUCAGCAGGGCAUCUCUGAGAGCAAUGCC [A42G A140C], the self-cleavage is 0.93.

UACGUAGGUGGUUUUCCCCUGAUAGUGCUAAGGGGGCCUGGGAGUUUGGACUGGGCAGAGCUCAACACAGCGUGGCAAAGUGGCUGUGGCUAGACUGCCUCUCUGGAUUCCUCGUCACUCAGCUGGGCAUCUCUGAGAGAAAUGCC [A42G A124U]: the self-cleavage turned out to be 1.35.
